Results published in the supplement of paper PMC9112550, “Optimization of the antimicrobial peptide Bac7 by deep mutational scanning” (BMC Biology, 2022).

System: Escherichia coli TOP10
Assay: shrunken log2 fold change of peptide-encoding DNA abundance (4.5 h post-induction vs induction); higher = less antimicrobial activity (less host growth inhibition)
Conditions: time post-induction: 4.5 h; library: site-saturation at positions 5, 18, 19, 20
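Further: peptides expressed intracellularly from a pBAD plasmid library in pooled LB shake-flask culture, induced with 0.3% L-arabinose, DNA abundance read by NGS, three biological replicates, DESeq2 with apeglm shrinkage.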

| Sequence | shrunken log2 fold change |
| --- | --- |
| RRIRNRPPRLPRPRPRPKFDPRP | -0.235 |
| RRIRHRPPRLPRPRPRPRHRPRP | -0.029 |
| RRIRHRPPRLPRPRPRPNKMPRP | -0.0582 |
| RRIRDRPPRLPRPRPRPMSYPRP | -0.0376 |
| RRIRQRPPRLPRPRPRPPSDPRP | 1.18 |
| RRIRHRPPRLPRPRPRPDPHPRP | 0.000754 |
| RRIRCRPPRLPRPRPRPWQYPRP | 0.0686 |
| RRIRKRPPRLPRPRPRPHHIPRP | -0.165 |
| RRIRRRPPRLPRPRPRPECEPRP | 0.323 |
| RRIRFRPPRLPRPRPRPQPTPRP | 0.597 |
| RRIRWRPPRLPRPRPRPIVEPRP | 0.127 |
| RRIRVRPPRLPRPRPRPEKGPRP | -0.09 |
| RRIRLRPPRLPRPRPRPHKYPRP | -0.559 |
| RRIRLRPPRLPRPRPRPIKNPRP | -0.317 |
| RRIRQRPPRLPRPRPRPTGIPRP | -0.177 |
| RRIRNRPPRLPRPRPRPLSTPRP | 0.0462 |
| RRIRLRPPRLPRPRPRPAMEPRP | -0.0355 |
| RRIRTRPPRLPRPRPRPMCTPRP | -0.0211 |
| RRIRNRPPRLPRPRPRPYFAPRP | -0.198 |
| RRIRERPPRLPRPRPRPMQLPRP | 0.0995 |
| RRIRVRPPRLPRPRPRPPAFPRP | 0.068 |
| RRIRRRPPRLPRPRPRPSPAPRP | 0.868 |
| RRIRRRPPRLPRPRPRPMQVPRP | -0.198 |
| RRIRHRPPRLPRPRPRPHCVPRP | -0.01 |
| RRIRFRPPRLPRPRPRPQEYPRP | -0.541 |

| Sequence | shrunken log2 fold change |
| --- | --- |
| RRIRGRPPRLPRPRPRPWKSPRP | -0.207 |
| RRIRTRPPRLPRPRPRPHHEPRP | -0.103 |
| RRIRLRPPRLPRPRPRPMCWPRP | 0.0663 |
| RRIRGRPPRLPRPRPRPSSGPRP | 0.0321 |
| RRIRLRPPRLPRPRPRPQQDPRP | -0.29 |
| RRIRKRPPRLPRPRPRPEWPPRP | 0.273 |
| RRIRLRPPRLPRPRPRPLVEPRP | 0.222 |
| RRIRTRPPRLPRPRPRPILQPRP | -0.44 |
| RRIRCRPPRLPRPRPRPFKQPRP | -0.0402 |
| RRIRVRPPRLPRPRPRPMPYPRP | 0.122 |
| RRIRCRPPRLPRPRPRPIGFPRP | 0.129 |
| RRIRSRPPRLPRPRPRPNIRPRP | 0.0389 |
| RRIRERPPRLPRPRPRPIEGPRP | 0.0039 |
| RRIRKRPPRLPRPRPRPLNIPRP | -0.0957 |
| RRIRIRPPRLPRPRPRPKNEPRP | -0.14 |
| RRIRHRPPRLPRPRPRPWFFPRP | -0.379 |
| RRIRMRPPRLPRPRPRPKSYPRP | 0.0526 |
| RRIRRRPPRLPRPRPRPLSEPRP | 0.382 |
| RRIRLRPPRLPRPRPRPRAGPRP | 0.557 |
| RRIRTRPPRLPRPRPRPVATPRP | 0.299 |
| RRIRTRPPRLPRPRPRPAYIPRP | 0.412 |
| RRIRLRPPRLPRPRPRPDLKPRP | -0.0789 |
| RRIRYRPPRLPRPRPRPIFRPRP | -0.258 |
| RRIRQRPPRLPRPRPRPERKPRP | 0.0453 |
| RRIRKRPPRLPRPRPRPQSSPRP | -0.0228 |

| Sequence | shrunken log2 fold change |
| --- | --- |
| RRIRYRPPRLPRPRPRPEMLPRP | -0.0664 |
| RRIRYRPPRLPRPRPRPSRSPRP | 0.134 |
| RRIRCRPPRLPRPRPRPPMQPRP | 0.516 |
| RRIRCRPPRLPRPRPRPFYMPRP | -1.15 |
| RRIRHRPPRLPRPRPRPHHCPRP | -0.152 |
| RRIRIRPPRLPRPRPRPQVDPRP | 0.0508 |
| RRIRPRPPRLPRPRPRPFKGPRP | -0.209 |
| RRIRYRPPRLPRPRPRPCTKPRP | -1.15 |
| RRIRVRPPRLPRPRPRPWGHPRP | 0.0373 |
| RRIRARPPRLPRPRPRPFYVPRP | -0.383 |
| RRIRKRPPRLPRPRPRPHMWPRP | -0.174 |
| RRIRKRPPRLPRPRPRPGQQPRP | 0.0114 |
| RRIRLRPPRLPRPRPRPRTVPRP | 1.24 |
| RRIRSRPPRLPRPRPRPYTWPRP | -0.989 |
| RRIRRRPPRLPRPRPRPWFMPRP | -0.125 |
| RRIRRRPPRLPRPRPRPNDWPRP | 0.24 |
| RRIRHRPPRLPRPRPRPSARPRP | -0.223 |
| RRIRNRPPRLPRPRPRPRRNPRP | -0.03 |
| RRIRIRPPRLPRPRPRPQSNPRP | -0.197 |
| RRIRTRPPRLPRPRPRPPWLPRP | 0.547 |
| RRIRVRPPRLPRPRPRPVAFPRP | -0.0455 |
| RRIRIRPPRLPRPRPRPQMLPRP | -0.633 |
| RRIRCRPPRLPRPRPRPMMTPRP | 0.00323 |
| RRIRDRPPRLPRPRPRPEHEPRP | 0.017 |
| RRIRARPPRLPRPRPRPINAPRP | -0.256 |

| Sequence | shrunken log2 fold change |
| --- | --- |
| RRIRPRPPRLPRPRPRPQQRPRP | 0.0201 |
| RRIRKRPPRLPRPRPRPCTWPRP | -0.15 |
| RRIRARPPRLPRPRPRPKEDPRP | 0.133 |
| RRIRWRPPRLPRPRPRPIPWPRP | -0.0329 |
| RRIRPRPPRLPRPRPRPLYIPRP | -0.227 |
| RRIRYRPPRLPRPRPRPACRPRP | -0.077 |
| RRIRARPPRLPRPRPRPPEGPRP | 0.783 |
| RRIRARPPRLPRPRPRPDKDPRP | 0.083 |
| RRIRARPPRLPRPRPRPKYYPRP | -0.179 |
| RRIRYRPPRLPRPRPRPPCGPRP | -0.406 |
| RRIRYRPPRLPRPRPRPPYGPRP | -0.54 |
| RRIRARPPRLPRPRPRPSSYPRP | -0.342 |
| RRIRVRPPRLPRPRPRPLMFPRP | -0.449 |
| RRIRLRPPRLPRPRPRPTHAPRP | 0.029 |
| RRIRGRPPRLPRPRPRPNAAPRP | 2.21 |
| RRIRSRPPRLPRPRPRPNTLPRP | -0.373 |
| RRIRSRPPRLPRPRPRPCDHPRP | -0.138 |
| RRIRMRPPRLPRPRPRPGCNPRP | 0.00293 |
| RRIRQRPPRLPRPRPRPWIPPRP | 0.0265 |
| RRIRWRPPRLPRPRPRPCQWPRP | 0.0226 |
| RRIRQRPPRLPRPRPRPYIWPRP | -0.0658 |
| RRIRSRPPRLPRPRPRPCWDPRP | -0.189 |
| RRIRERPPRLPRPRPRPMWRPRP | -0.0079 |
| RRIRQRPPRLPRPRPRPYKSPRP | -0.248 |
| RRIRNRPPRLPRPRPRPKVTPRP | -0.0149 |

| Sequence | shrunken log2 fold change |
| --- | --- |
| RRIRCRPPRLPRPRPRPNNPPRP | -0.681 |
| RRIRWRPPRLPRPRPRPVCCPRP | 0.469 |
| RRIRIRPPRLPRPRPRPKVIPRP | 0.0457 |
| RRIRNRPPRLPRPRPRPCYGPRP | -0.102 |
| RRIRRRPPRLPRPRPRPMIKPRP | 0.0444 |
| RRIRTRPPRLPRPRPRPCMWPRP | 0.0746 |
| RRIRFRPPRLPRPRPRPMNIPRP | -0.192 |
| RRIRYRPPRLPRPRPRPFEIPRP | -0.17 |
| RRIRNRPPRLPRPRPRPHFLPRP | -0.217 |
| RRIRFRPPRLPRPRPRPPDWPRP | 0.701 |
| RRIRDRPPRLPRPRPRPRQDPRP | 0.367 |
| RRIRSRPPRLPRPRPRPKCRPRP | 0.0128 |
| RRIRFRPPRLPRPRPRPEMLPRP | 0.0583 |
| RRIRSRPPRLPRPRPRPNNDPRP | -0.503 |
| RRIRQRPPRLPRPRPRPFWFPRP | 0.0862 |
| RRIRNRPPRLPRPRPRPKNGPRP | 0.96 |
| RRIRVRPPRLPRPRPRPTIKPRP | -0.226 |
| RRIRDRPPRLPRPRPRPTQLPRP | -0.0815 |
| RRIRARPPRLPRPRPRPNIPPRP | -0.223 |
| RRIRFRPPRLPRPRPRPMSRPRP | 0.0534 |
| RRIRTRPPRLPRPRPRPLLNPRP | -0.157 |
| RRIRPRPPRLPRPRPRPEYEPRP | -0.0375 |
| RRIRSRPPRLPRPRPRPGQAPRP | 0.0166 |
| RRIRYRPPRLPRPRPRPVQDPRP | -0.00208 |
| RRIRCRPPRLPRPRPRPAWHPRP | 0.182 |
